Experimental data taken from PMC6740199 (Molecular Biology of the Cell, 2019).

Molecular target: T1, six-histidine-tagged Bem1 (His6-Bem1), carrying Bem1 residues from 44 to 551 (S. cerevisiae, UniProt P29366 44-551)
T1 sequence: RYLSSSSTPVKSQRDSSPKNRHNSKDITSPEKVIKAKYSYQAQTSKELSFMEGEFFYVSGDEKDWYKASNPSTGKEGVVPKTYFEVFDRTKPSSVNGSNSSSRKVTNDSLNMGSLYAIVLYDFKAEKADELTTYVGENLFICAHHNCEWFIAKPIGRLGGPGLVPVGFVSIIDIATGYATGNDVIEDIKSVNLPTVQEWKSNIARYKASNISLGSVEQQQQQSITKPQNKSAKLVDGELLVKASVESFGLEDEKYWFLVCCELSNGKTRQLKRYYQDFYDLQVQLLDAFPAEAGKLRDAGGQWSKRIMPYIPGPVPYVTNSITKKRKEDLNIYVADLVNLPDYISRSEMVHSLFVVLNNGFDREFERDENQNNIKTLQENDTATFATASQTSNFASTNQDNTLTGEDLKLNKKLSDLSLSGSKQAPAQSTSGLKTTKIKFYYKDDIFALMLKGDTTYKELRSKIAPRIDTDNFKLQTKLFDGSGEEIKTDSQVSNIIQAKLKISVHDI
Test: pull-down

B1: GST (glutathione S-transferase)-Rsr1 (natural protein)
chain: MRDYKLVVLGAGGVGKSCLTVQFVQGVYLDTYDPTIEDSYRKTIEIDNKVFDLEILDTAGIAQFTAMRELYIKSGMGFLLVYSVTDRQSLEELMELREQVLRIKDSDRVPMVLIGNKADLINERVISVEEGIEVSSKWGRVPFYETSALLRSNVDEVFVDLVRQIIRNEMESVAVKDARNQSQQFSKIESPSTRLPSSAKQDTKQSNNKQSSKGLYNKSSQGQAKVKQSTPVNEKHKPSHAVPKSGSSNRTGISATSQQKKKKKNASTCTIL
binding result: binds
